Results on 40 sequences are retold here after the nanobody polyreactivity screen of Harvey et al. (2022).

A short description of this data set: yeast display, Sf9 membrane polyspecificity reagent, FACS + sequencing; frameworks hold sequencing errors. The gist of the method: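 Galactose induction of a Saccharomyces cerevisiae BJ5465 synthetic nanobody display library ran 36–48 hours. The cells were then stained for 1 hour at 4 °C with 10% biotinylated, detergent-solubilized Sf9 membrane reagent, pulled down on streptavidin microbeads and FACS-sorted into low and high (top ~1%) gates on expression and reagent-binding fluorescence. Labels for polyreactivity follow the gate of origin.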
In the case of “QVQLVESGGGLVQAGGSLRLSCAASGFTFKYNAMGWYRQAPGKERELVASISSGSTNYADSVKGRFTISRDNAKNTVYLQMNSLKPEDTAVYYCAASVSRGKRFRYGYVFKLDYWGQGTQVTVSS”, the “polyreactivity (PSR sort gate)” value was “low polyreactivity”. As for “QVQLVESGRGLVRAGGSLRLSCAASGRTFGVYAMGWYRQAPGKERELVASIRYSGVSTYYADSVKGRFTISRDNAKNTVYLQMNSLKPEDTAVYYCAARYRSRRVDYGYDYWGQGTQVTVSS”, the “polyreactivity (PSR sort gate)” value was “high polyreactivity”.

For “QVQLVESGGGLVQAGGSLRLSCAASGRIFQGYAMGWYRQAPGKERELVASIRTGGTTNYADSVKGRFTISRDNAKNTVYLQMNRLKPEDTAVYYCNRGYYSYYGGYYYWGQGTQVTVSS”, the “polyreactivity (PSR sort gate)” value is “high polyreactivity”.

“QVKLVESGGGLVQAGGSLRLSCAASGSTFASYAMGWYRQDPGKQRELVAAITRSGGSSTYADSVKGRFTISRDNAKITVYLQMNSLKPEDTAVYYCAARYLYSYYVSYDYWGQGTQLTVSS”: the “polyreactivity (PSR sort gate)” value is listed as “high polyreactivity”.

“QVQLVESGGGLVQAGGSLRLSCAASGSTFAGNGMGWYRQAPGKERELVAGIDVTGGSSYYADSVKGRFTISRDNAKNTVYLQMNSLKPEDTAVYYCNTVWYRGGIDYYWGQGTQVTVSS”: the “polyreactivity (PSR sort gate)” value is given as “low polyreactivity”. For “QVQLVESGGGLVQAGGSLRLSCAASGRILRYYAMGWYRQAPGKELELVASISRGGSTYYADSVKGRFTISRDNAKNTVYLQMNSLKPEDTAVYYCATEVRRSTREFGYWGQGTQVTVSS”, the “polyreactivity (PSR sort gate)” value was “high polyreactivity”. The result for “QVQLVESGGGLFQAGGSLRLSCAASGIIFPRYMGWYRQAPGKERELVAAIRWSSDDTNYADSVKGRFTISRDNAKNTVYLQMNSLKPEDTAVYYCAADSYYDRTIQFEFSARTYEYWGQGTQVTVSS” reads “low polyreactivity”; that for “QVQLVESGGGLVQAGGSLRLSCAASGFTFVPYAMGWYRQAPGKEREFVADITSSGTTNYADSVKGRFTISRDNAKNTVYLQMNSLKPEDTAVYYCAADPDSGQVPFDYWGQGTQVTVSS”, “low polyreactivity”; that for “QVQLVESGGGLVQAGGSLRLSCAASGSILLNNAMGWYRQAPGKERELVAAISLSGGGSTYYADSVKGRFTISRDNAKNTVYLQMNSLKPEDTAVYYCNADDPYLYYDSYDYWGQGTQVTVSS”, “low polyreactivity”. The result for “QVQLVDSGGGLVQAGGSLRLSCAASGSTFRRNAMGWYRQAPGKERELVAAITSSGGGSTYYADSVKGRFTISRDNAKNSVYLQMNSLKPEDSAVYYCAKDFWYRSYDYWGQGTQVTVSS” reads “low polyreactivity”. On to “QVQLVESGGGLVQAGGSLRLSCAASGSIFWGNAMGWYRQAPGKERELVATISWSAGSTYYADSVKGRFTISRDNAMNTVYLQMNSLKPDDTAVYYCATDVRHSTLYYYWGQGTQVTVSS”, for which the “polyreactivity (PSR sort gate)” value was “low polyreactivity”. The result for “QVHLVESGGALVQAGGRLRLSCAASGSIFGRNAMGWYRQAPGKERELVAVISKRSGNTYYADSVKGRFTISRDNAKNTVYLQMNSLKPEHTAVYYCNAVDQKLLRYDYWGQGTEVTVSS” reads “high polyreactivity”; that for “QVQLVESGGGLVQAGGSLRLSCAAYGSTFRYYTMGWYRQAPGKERELVAAISGSGGITYYADSLKGRFTISRDNAKNTVYLQMNSLKPEDTAVYYCAAESRYYPYWGQSVQYDYWGQGTQVTVSS”, “high polyreactivity”. Turning to “QVQLVESGGGLVQAGGSLRLSCAASGLTFVKNVMGWYRQAPGKERELVAAISRRGGSTYYADSVKGRFTISRDNAKNTVYLQMNSLKPEDTAVYYCNAVLNQLSYIYPAVGYWGQGTQVTVSS”, the “polyreactivity (PSR sort gate)” value was “high polyreactivity”. As for “QVQLVESGGGLVQAGGSLRLSCAASGSTFNIYAMGWYRQAPGKERELVAAISGNGDRTYYADSVKGRFTISRDNAKNTVYLQMNSLKPEDTAVYYCAAKYYGWGQGTQVTVSS”, the “polyreactivity (PSR sort gate)” value is “high polyreactivity”. Under “QVQLVESGGGLVQAGGSLRLSCAASGRTFGGYAMGWYRQAPGKERELVAAISKRSGSTYYADSVKGRFTISRDNAKNTVYLQMNSLKPEDTAVYYCNKVWFQRSVQPVEYDYWGQGTQVTVSS” stands “high polyreactivity”; under “QVQLVESGGGLVQAGGRLRLSCAASGRTFDRMLMGWYRQAPGKERELVAAITSGGRTNYADSVKGRFTISRDNAKNTVYLQMNSLKPEDTAVYYCAKRASALLRHSYDYWGQGTQVTVSS”, “low polyreactivity”; under “QVQLVESGGGLVQAGGSLRLSCAASGRIFSFNAMGWYRQAPGKERELVAAISWSTGSTFYADSVKGRFTISRDNAKNTVYLQMNSLKPEDTAVYYCAREYYYRRGFFLRGYWGQGTQVTVSS”, “high polyreactivity”. As for “QVQLVESGGGLVQAGGSLRFSCAASGSIFQPYAMGWSRQAPGKERAFVAAISRSGGITYYADSVKGRFTISRDNAKNTVYLQMNSLKPEDTAVYYCAADYILWKGSNSYYYAGYYYWGQGTQVTVSS”, the “polyreactivity (PSR sort gate)” value is on record as “low polyreactivity”. The result for “QVQLVESGGGLVQAGGSLRLSCAASGSTFRYYSMGWYRQAPGKERELVASISSGGSTNYADSVKGRFTISRDNAKNTVYLQMNSLKPGDTAVYYCNADSWTVNRRYYYYRYEYWGQGTQVTVSS” reads “low polyreactivity”; that for “QVQLVESGGGLVQAGGSLRLSCAASGSTFLYYTMGWYRQAPGKERELVAAITSGGDSNYADSVKGRFTISRDNAKNTVYLQMNSLKPEDTAVYYCNAEYTWSGTKIYTYKYDYWGQGTQVTVSS”, “low polyreactivity”. As to “QVQLVESGGGLVQAGGSLRLSCAASGRTFRRYTMGWYRQAPGKESELVATISSGGSTYADSVKGRFTISLDNAKNTVYLQMNSLKPEDTAVYYCAARYDVAWYSKRYSWGQGTQVTVSS”, the “polyreactivity (PSR sort gate)” value is listed as “high polyreactivity”. The result for “QVQLVESGGGLVQAGGSLRLSCAASGSIFNRYTMGWYRQAPGKERELVAAISKRGGSTYYADSVKGRFTISRDNAKNTVYLQMNSLKPEDPAVYYCAAAGYHSGKGGGYWGQGTQVTVSS” reads “high polyreactivity”; that for “QVQLVESGGGLVQAGGSLRLSCAASGGTFYAYAMGSYRQAPGKERELVAAITNSGGSTYYADSVKGRFTISRDNAKNNVYLQMHSLKPEDTAVYYCARRRSYRDNYWGQGTQVTVSS”, “high polyreactivity”. Under “QVQLVESGGGLVQAGGSLRLSCAASGSIIRTYVMGWYRQAPGKERELVAAITYSGGRTYYADSVKGRFTISRDNAKNTVYLQMNSLKPEDTAVYYCAARSPRPSAIYDYWGQGTQVTVSS” stands “high polyreactivity”. The result for “QVQLVESGGGLVQAGGSLRLSCAASGSNFYVYAMLWYRQAPGKERELVADITTRDGDTYYADSVKGRFTISRDNAKNTVYLQMNSLKPEDTAVYYCAADLNAYPLRAYDYWGQGTQVTVSS” reads “low polyreactivity”; that for “QVQLVESGGGLVQAGGILRLSCAASGSTLTYYTMGWYRQAPGKERELVAHISWSSGRTYYADSVKGRFTISRDNAKNTVYLQMNSLKPEDTAVYYCNADRTYYRGLDYWGQGTQVTVSS”, “high polyreactivity”. Consider “QVLLVESGGGLVQAGGSLRLSCASSGNTFYVNVMGWYRQAPGKEREFVAAISTRGVSTSYADSVKGRYTISRDNAKNTVYLDMNTLKPEDTAVYYCAASFRRPQPKGTTYGYWGQGTQVTVSS”, for which the “polyreactivity (PSR sort gate)” value is “high polyreactivity”.

For the sequence “QVQIVESGGGLVQAGGSHRLSCADSGRTFGVNTMGWYRQAPAKERQFVAAISSRSGSTYYADSVKGRFTISRDNAKNNVYLQMNSLKPEDTAVDYCAKGPLPRAGVKFDYWGHGTQVTVSS”, the “polyreactivity (PSR sort gate)” value is on record as “low polyreactivity”. Under “QVQLVESGGGLVQAGGSLRLSCAASGRIFGPNAMGWYRQAPGKERELVAAISWSGSSTRYADSVKGRFTISRDNAKNTVYLQMNSLKPEDTAVYYCAARRQSPDRYTKYEYWGQGTQVTVSS” stands “low polyreactivity”; under “QVQLVESGGGLVQAGGSLRLSCAASGSTFKRYAMGWYRQAPGKERELVAAITSGSSTYYADSVKGRFTISRDNAKNTVYLQMNSLKPEDTAVYYCAARRAGAKYYLYGYDYWGQGTQVTVSS”, “low polyreactivity”. Turning to “QVQLVESGGRLVQAGGSLRLSFAACGSILRDNSMGWYRQAPGKEREFVADIRGSYDSTYYADSVKGRFTISRDNAKHTVYLQMNSRKREDTAVYYCNRVDAWQDYDYWGLGTQVTVSS”, the “polyreactivity (PSR sort gate)” value was “low polyreactivity”. On to “QVQLVESGGGLVQAGGSLRLSCAASGFIFGQYAMGWYRQAPGKERELVATINRSGGSTYYADSVKGRFTISRDNAKNTVYLQMNSLKPEDTAVYYCAKGPRISSSLRYSAYWKMNYWGQGTQVTVSS”, for which the “polyreactivity (PSR sort gate)” value is on record as “high polyreactivity”.

Take “QVQLVESGGGLGQAGGSLRLSCAASGITFRSYAMGWYRQAPGKERELVATISWSGGITYYADSVKGRFTISRDNAKNTVYLQMNSLKPEDTAVYYCAKASQSWGPDDYYYWGQGTQVTVSS”: the “polyreactivity (PSR sort gate)” value is “low polyreactivity”. Under “QVQLVESGGGLVQAGGSHRLSCAASGSILDTYAMGWYRQAPGKERELVAAISRGGRTYYADSVKGRFTLSRDNAKNTVYLQMNSLKPEDTAVYYCNTLTRLVYDGMGYWGQGTQVTVSS” stands “high polyreactivity”. For the sequence “QVQLVESGGGLVQAGGSLRLSCAASGSTFGYNAMGWYRQSPGKERELVAAISYSGGSTYYADSVKGRFTISRDNAKNTVYLLMNSLKPEDTAVYYCAKETNRVGRYHWGQGTQVNVSS”, the “polyreactivity (PSR sort gate)” value is on record as “low polyreactivity”. For the sequence “QVQLVESGGRLVQAGRSLRLSCAASGRTFGRYAMGWYRQAPGKERELVAAITRGGGSTYYADSVKGRFTISRDNAKYTVSLQMNSLKPEDTAVYYCAARNFRSPYGYDYWGQGTQVTVSS”, the “polyreactivity (PSR sort gate)” value is recorded as “high polyreactivity”. The result for “QVQHVESGGGLFQAGGSHRLSCAASGRTFSKNAMGWYRQAPGKERELVAAINRGGTTKYADSVKGRFTISRDNAKNTVYLQMNSQKPEDTTVYYCAVDRQRAGYPKQYDSWGQGTQVTVSS” reads “low polyreactivity”; that for “QVQLVESGGGVVQAGGSLRLSCAASGSIFYVYSMGWYRQAPGKERELVAAISRSGTNTYYADSVKGRFTISRDNAKNTVYLQMNSLKPEDTAVYYCNADAAYLVTQPYDDNYDYWGQGTQVTVSS”, “low polyreactivity”; that for “QVQLVESGGGLVQAGGSLRLSGAASGRTFRKYAMGWYRQAPGKERELVAAISWSGGSTYYANSVKGRFTISRDNAKNTVYLQMNSLKPEDTAVYYCAAVPVHTGSLYWGFTTGYDYWGQGTQVTVSS”, “low polyreactivity”.
